Patent publication US12723255B2, “Herbicide tolerance genes and methods of use thereof” (priority 2014, dated 2026)

What was measured:
Format in all cases: in vivo
Settings in all cases: CTP A, crop injury percentage
transgenic maize plants = experiment: trait efficacy field trials with homozygous inbred plants, CTP evaluation
Text: To evaluate different chloroplast targeting peptides (CTP), plant transformation vectors were constructed, each comprising a recombinant DNA molecule optimized for monocot expression and encoding MON-HTI (SEQ ID NO: 16), MON-HT2 (SEQ ID NO:20), and MON-HT8 (SEQ ID NO:39), MON-HT9 (SEQ ID NO:42), or MON-HT10 (SEQ ID NO:45). The vectors were created using the same combination of promoter, leader, intron, and 3′-UTR, but with one of three separate CTPs (A, B, or C) or without a CTP operably linked to the protein-coding sequence. The DNA constructs were used to transform immature maize (LH244) embryos using Agrobacterium tumifaciens and standard methods known in the art. Regenerated RO transgenic plantlets were grown in the green house. The R0 plants were selfed to generate R1 homozygous seed. The R0 plants were also used as the male to cross with inbred plants containing maize event MON89034 to generate segregating F1 hybrid seed for trait efficacy field trials.
Separate trait efficacy field trials for quizalofop-P and 2,4-D were conducted at two locations each with the homozygous inbred transgenic plants (R2 or R4 generation). In these field trials, one of two herbicide treatments was used: (1) quizalofop-P (Assure II) at 0.16 lb ai/acre (2×) plus 0.25% v/v non-ionic surfactant (NIS) applied at V4 growth stage followed by the same at V8 growth stage; or (2) 2,4-D amine at 2 lb ae/acre (2×) plus 0.25% v/v non-ionic surfactant (NIS) applied to V4 followed by V8. Injury ratings (crop injury percentage at V4 (CIPV4) or V8 (CIPV8)) were taken 10 to 14 days after the V4 and V8 applications. Error was calculated using LSD (0.05).

F1 hybrid maize plants [1] = experiment: trait efficacy field trial, quizalofop-P pressure screening, F1 hybrid
Description: (§1) Separate trait efficacy field trials for quizalofop-P and 2,4-D pressure screening were conducted at one location each with F1 hybrid transgenic plants produced by crossing an inbred plant containing maize event MON89034 with an R1 plant containing MON-HT1, MON-HT2, MON-HT8, MON-HT9, and MON-HT10 with and without operably linked CTP sequences. Transgenic F1 hybrid plants containing maize events NK603×MON89034 were used for comparison as a control.
In the trait efficacy field trial for quizalofop-P tolerance, one of three herbicide treatments was used: (1) quizalofop-P (Assure II) at 0.32 lb ai/acre (4×) plus 0.25% v/v non-ionic surfactant (NIS) applied at VE-V2 growth stage followed by the same at V4 growth stage followed by the same at V8 growth stage; (2) quizalofop-P at 0.64 lb ai/acre (8×) plus 0.25% v/v NIS applied at VE-V2 growth stage followed by the same at V4 growth stage followed by the same at V8 growth stage; or (3) quizalofop-P at 1.28 lb ai/acre (16×) plus 0.25% v/v NIS applied at VE-V2 growth stage followed by the same at V4 growth stage followed by the same at V8 growth stage. Plots were visually rated as above. […] The injury rating for the control plants after all quizalofop-P application was 100%. Error was calculated using LSD (0.05).

F1 hybrid maize plants [2] = experiment: trait efficacy field trial, 2,4-D pressure screening, F1 hybrid
Description: as §1
Three herbicide treatments were used in the trait efficacy field trial for 2,4-D tolerance: (1) 2,4-D amine at 4 lb ac/acre (4×) plus 0.25% v/v NIS applied to VE-V2 followed by V4 followed by V8; (2) 2,4-D amine at 8 lb ac/acre (8×) plus 0.25% v/v NIS applied to VE-V2 followed by V4followed by V8 maize; or (3) 2,4-D amine at 16 lb ac/acre (16×) plus 0.25% v/v NIS applied to VE-V2 followed by V4 followed by V8. Plots were visually rated as above.
The injury rating for the control plants after all 2,4-D applications ranged from 80% to 96.25%. At the highest rate of 2,4-D (16×) applied through V8, the plants containing MON-HT1 or MON-HT2 operably linked to any of the three CTPs (A, B, or C) had better tolerance than plants containing MON-HT1 or MON-HT2 not operably linked to a CTP. Plants containing MON-HT1, MON-HT2, or MON-HT8 with or without an operably linked CTP had better tolerance to 2,4-D at all applications tested compared to plants containing either MON-HT9 or MON-HT10 with an operably linked ‘A’ CTP. Over the range of 2,4-D applications the relative ranking of tolerance was: plants containing MON-HT1 had better tolerance than plants containing MON-HT2 which were in turn better than plants containing MON-HT8. […] Error was calculated using LSD (0.05).

[3] = 0.32 lb ai/acre at VE-V2, V4, V8
[4] = 0.64 lb ai/acre at VE-V2, V4, V8
[5] = 1.28 lb ai/acre at VE-V2, V4, V8

B1: MON-HT9: engineered oxygenase protein, amino acid sequence SEQ ID NO:40 (protein)
chain: MHAALTPLTNKYRFIDVQPLTGVLGAEITGVDLREPLDDSTWNEILDAFHTYQVIYFPAQQITNEQHISFSRRFGPVDPVPLLKSIEGYPEVQMIRREANESGRILGDDWHTDSTFLDAPPAAVVMRAIEVPEYGGDTGFLSMYSAWDTLSDTMKATIEGLNVVHSATRVFGSLYQAQNWRFSNTSVKVMDVDAGDRETVHPLVVSHPVTGRRALYCNQVYCQRIEGMTDAESKCLLQFLYEHATKFDFTCRVRWKKDQVLVWDNLCTMHRAVPDYAGKFRYLTRTTVAGDRPAR
2X Quizalofop-P CIPV4 (transgenic maize plants; 0.16 lb ai/acre at V4, V8, LSD (0.05) = 1.45): 0 | 2X Quizalofop-P CIPV8 (transgenic maize plants; 0.16 lb ai/acre at V4, V8, LSD (0.05) = 2.2): 0 | 2X 2,4-D CIPV4 (transgenic maize plants; 2 lb ae/acre at V4, V8, LSD (0.05) = 0.95): 3.75 | 2X 2,4-D CIPV8 (transgenic maize plants; 2 lb ae/acre at V4, V8, LSD (0.05) = 1.6): 1.25 | 4X Qizalofop-P CIPV4 (F1 hybrid maize plants [1]; [3]): 0 | 4X Qizalofop-P CIPV8 (F1 hybrid maize plants [1]; [3]): 5 | 8X Qizalofop-P CIPV4 (F1 hybrid maize plants [1]; [4]): 2.5 | 8X Qizalofop-P CIPV8 (F1 hybrid maize plants [1]; [4]): 15 | 16X Qizalofop-P CIPV4 (F1 hybrid maize plants [1]; [5]): 7.5 | 16X Qizalofop-P CIPV8 (F1 hybrid maize plants [1]; [5]): 20 | 4X 2,4-D CIPV4 (F1 hybrid maize plants [2]; 4 lb ae/acre at VE-V2, V4, V8): 17.5 | 4X 2,4-D CIPV8 (F1 hybrid maize plants [2]; 4 lb ae/acre at VE-V2, V4, V8): 55 | 8X 2,4-D CIPV4 (F1 hybrid maize plants [2]; 8 lb ae/acre at VE-V2, V4, V8): 25 | 8X 2,4-D CIPV8 (F1 hybrid maize plants [2]; 8 lb ae/acre at VE-V2, V4, V8): 75 | 16X 2,4-D CIPV4 (F1 hybrid maize plants [2]; 16 lb ae/acre at VE-V2, V4, V8): 45 | 16X 2,4-D CIPV8 (F1 hybrid maize plants [2]; 16 lb ae/acre at VE-V2, V4, V8): 90
